Experiment: yeast display, Sf9 membrane polyspecificity reagent, FACS + sequencing; frameworks hold sequencing errors
Summary of the method: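 Synthetic nanobody libraries on Saccharomyces cerevisiae BJ5465 were galactose-induced for 36–48 hours, stained 1 hour at 4 °C with 10% biotinylated, detergent-solubilized Sf9 membrane reagent and enriched on streptavidin microbeads. FACS then separated cells into low and high (top ~1%) gates by anti-HA (expression) and streptavidin (reagent binding) fluorescence. Genes were colony-PCR amplified, MiSeq 2 × 250 sequenced and CDR-length filtered. A clone's polyreactivity label is that of its gate of origin.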

Row | Sequence | polyreactivity (PSR sort gate)
1 | QVQHVESGGGLVQAGGSLRLRCAASGSTFQYNPMGWYRQAPGKERELVASITRGGNTNYADSVKGRFTISRDNAKNTVYLQMNSLKPEDTAVYYCAARSTYRVSHVDYWGQGTQVTVSS | low polyreactivity
2 | QLQLVESGGGLVQAGGSLRLSCAASGLIFTTNAMGWYRQAPGKEREFVAAISPSGGSTYYADSVKGRFTISRDNAKNTVYLQMKSLKPEDTAVYYCAKRPYVGYDWGQGTQVTVSS | high polyreactivity
3 | QVQLVESGGGLVQAGGSLRLSCAASGRTLGYNAVGWYRQAPGKERELVAAINGGDSTYADSVKGRFTISRDNAKNTVYLQMNSLKPEDTAVYYCNALRGGPFRWHGYYYWGQGTQVTVSS | low polyreactivity
4 | QVQLVESGGGLVQAGGSLRLRCAASGISFRRNVMGWCRQAPGKERELVARISRAGSTKYADSVKGRFTISRDTAKNTVYLQMTSLKPEDTAVYYCNKVTRRNGQPYDYWGQGTQVTVSS | high polyreactivity
5 | QVQLVESGGGLVQAGGSLRLSCAASGRIFGYYAMGWYRPAPGKEMELVAAIRYSSGRTYYADSVKGRFTISRDNAKNTVYLQMNSLKPEDTAVYYCAAKDQATYQLNYWGQGTQVTVSS | high polyreactivity
6 | QVQLVESGGGLVQAGGSLRLSCAASGRTFRYYAMGWYRQAPGKVRELVAAISWNGANTYYADSVKGRFTISRDNAKNTVYLQMNSLKPEDTAVYYCAATYYRWKGYDYWGQGTQVTVSS | high polyreactivity
7 | QVQLVESGGGLVQAGASLRLSCAASGIILHYYAMGGYRQAPGKERELVAAISARGGRTYYADSVKGRFTISRDNAKNTVYLQMNSLKPEDTAVYYCARYLRRSSPSPGYGYWGQGTQVTVSS | high polyreactivity
8 | QVQLVESGGGLVQAGGSLRLSCAASGRIFDIYAMGWYRQAPGKERELVAGITSVGSTNYADSVKGRFTISRDNAKNTVYLQMNSLKPEDTAVYYCAADTSVHSEVDYWGQGTQVTVSS | low polyreactivity
9 | QVQLVESGGGLVQAGGSLRLSCAASGSIFSYYAMGWYRQAPGKERELVAAISQSGGTTYYADSVKGRFTISRDNAKNTDYLQMKSLKPEDTAVYYCAARAPSSFDTQYYYWGQGTQVTVSS | low polyreactivity
10 | QVQLVESGGGLVQAGGSLRLSCAASGRIFDPYAMGWYRQAPGKERELVASNSWSGGRTYYADSVKGRFTISRDNAKNTVYLQMNSLKPEDTAVYYCAKVRAYTRLGLTVSMDYWGQGTQVTVSS | high polyreactivity
11 | QVQLVESGGGLVQAGCSLRLSCAACGSIFGPYSMGWYRQAPAKEREFVAAISRSGTSTNYADSVKGRFTISRDNAKNTVYLQMNSLKPEDTAVYYCATAAFIVGSSRTYDYWGQGTQVTVSS | high polyreactivity
12 | QVQLVESGGGLVQAGGSLRFSCAASGFTFASNAMGWYRQAPGQERELVAAITSGGRTYYADSVKGRFTISRDNAKNTVYLQMNSLKPEDTAVYYCAKPNGALKRYYYWGQGTQVTVSS | high polyreactivity
13 | QVQLVESGGGLVQAGGSLRLSCAASGRTFWRYAMGWYRQAPGKERELVAAISSGGRTNYADSVKGRFTISRDNAKNTVYLQMNSLKPEDTAVYYCAVKTVRSSSRNYWGQGTQVTVSS | high polyreactivity
14 | QVQLVESGGGLVQAGGSLRLSCAASGLTFPSNAMGWYRQAPGKERELVAAISKRGGRTFYADSVKGRFTISRDNAKNTVYLQMNSLKPEDTAVYYCATPYAYPGTVQYAGYNYWGQGTQVTVSS | high polyreactivity
15 | QVQLVESGGGLVQAGGSLRLSCAASGRIFIYNAMGWYRQAPGKEMELVAAISWSGGSTYYADSVKGRFTISRDNAKNTVYLQMNSLKPEDTAVYYCNARYYGPSWNSYDYWGQGTQVTVSS | high polyreactivity
16 | QVQLVESGGGLLQAGGSLRLSCSASGFIFHYYARGLYRQAPGKDRELVAAIRSGGSTYYADSVKGRFTISRDNAKNTVYLQMNSLKPEHTEVYFCNGRFYSRGYRYYYWGQGTQVTVSS | high polyreactivity
17 | QVQLVESGGGLVQAGGSLRLSCAASGRTFTRNAMGWYRQAPGKERELVAAITRGASTYYADSVKGRFTISRDNAKNTVYLQMNSLKPEDTAVYYCAVSQYRGIYRKYDYWGQGTQVTVSS | high polyreactivity
18 | QVQLVESGGGLVQAGGSLRLSCAASGITFRRYTMGWYRQAPGKEWELVATISLSDGNTYYADSVKGRFTISRDNAKTTVYLQMNSLKPEDTAGYYCNARHTWHQTYDYWGQGTQVTVSS | low polyreactivity
19 | QDQLVESGGGLVQAGGSLRLSCAASGRNFYRYVMGWYRQAPGKERELVAAITSSGGSTYYADSVKGRFTISRDNAKNTFYLQMNSLKPEDTAVYYCAADRYTRYRYYYWGKGTQVTVSS | high polyreactivity
20 | QLKLVESGGGLVQAGGSLRLSCAASGSIFDVNAMGWYREAPGKEMELVAAISDSGGSTYYADSVKGRFTISRDNAKNTVYLQMNSLKPEDTAVYYCNADWSWYHYYDCDYWGQGTQVTVSS | low polyreactivity
21 | QVQLVESGGGLVQAGVSLRLSCAASGRIFVGYAMGWYRQAPGKERELVAGIRYSGGSTYYADSVKGRFTISRDNAKNTVYLQMNSLKPEDTAVYYCATQVWHYAGRPNYKYDYWGQGTQVTVSS | low polyreactivity
22 | QVQLVESGGGLVQAGGSLRLSCAASGSIFSYYAMGWYRQAPGKERELFAVINSGGRTNYADSVKGRFTISRDNAKNTVYLQMNSLKPEDTAVYYCAAQGYFVDRAGRYYRGDYWGQGTQVTVSS | high polyreactivity

Row | Sequence | polyreactivity (PSR sort gate)
23 | QVQLVESGGGLVQAGGSLRLSCAASGSIFYWYAMGWYRQAPGKERELVAAIDISDDTYYADSVKGRFTISRDNAKNTVYLQMNSLKPEDTAFYYCAARNTRWFYEYDWGQGTQVTVSS | high polyreactivity
24 | QVPLVESGGGLVQAGGSLRISCAASGSTIVGYSMGWYRQAHGKERELVADITSGGGITYYADSVKGRFTISRDNAKNTVYLQMNSLKPEYSAVYYCAARVVEIFHWAGDYWGQGTQVTVSS | low polyreactivity
25 | QVQLVESGGGLVQAGGSLRLSCCATGSIFYSYVMGWYRQAPGKEREWFAAISRNGQSTYYADSVKGRFTISLDNAKNTVYLQMNSLKPDDTAVYYCAARSRDKYDYWGQGTQVTVSS | high polyreactivity
26 | QVQLVESGGGLVQAGGSLRLSCAASGLTFYYYTMGWYRQAPGKERELVATISRSGTSTNYADSVKGRFTISRDNAKNTVYLQMNSLKPEDTAVYYCAAVLRWRDLFSEYYYWGQGTQVTVSS | high polyreactivity
27 | QVQLVESGGGLVQAGGSLRLSCAASGPIFRGYAMGWYRQAPGKERELVARITSGGRTYYADSVKGRFTISRDNAKNTVYLQMNSLKPEDTAVYYWATVGRGYDERHNYWGQGTQVTVSS | high polyreactivity
28 | QVQLVESGGGLVQAGGSLRLSCAASGFIFYRNTMGWYRQAPGKEREFVAAIRWRGGSSYYADSVKGRFTISRDNAKNTVYLQMNSLKPEDTAVYYCAADTRPGYSGFEYWGQGTQVTVSS | high polyreactivity
29 | QVQLVESGGGLVQAGGSLRLSCAASGFTFRYYAMGWYRQAPGKERELVADITWSGTRTYYADSVKGRFTISRDNAKNTVYLQMNSLKPEDTAVYYCAKVTWVRGSYYRNKSSIYDYWGQGTQVTVSS | high polyreactivity
30 | QVQLVESGVGLVQAGGSLRISCAASRSTFWNNCMGWYRQAPGKERDLVAAITVRGGSTYYADSVKGRFTISRDNAKNTVYLQMNSLKPEDTAVYFCAADRWLYSWFFNYDQGDYWGQGTQVSVSS | low polyreactivity
31 | QVQIVESGGGLVQAGGSLRLSCPASGLTFAWYAMGWYRQAPWTERELVAAINRSGGSTSYADSVKGRFTISRDNAMNTVYLQMNSLKPEDTAVYYCAAQLGYTTLGLIYWGQGTQVTVSS | low polyreactivity
32 | QFQLVESGGGLVQAGGSLRLSCAASGRIFGENARGWYSQATRKEREFVAVISISDASTYYADSVKGRFTITRDNAKNTVYLQMNSLKREDTAVDYCAADLTDFLYVASDYWGQGTQVTVSS | low polyreactivity
33 | QVQLVESGGGLVQAGGSLRLSCAASGSTFRKYAMGWYRQAPGKEREFVAAITWSTGTTYYADSVKGRFTISRDNAKNTVYLQMNSLKPEDTAVYYCNAAFWAPQAPCYYYWGQGTQVTVSS | low polyreactivity
34 | QVQHVESGGGLVQAGGSLPLSGAASGLTFTRYAMGWYRQAPGKESELVAAISKNGGSTYYADSVTGRFTISRDNAKYTVYLQMNSLKPEDTAVYYCAARRSTSYPAGYDYWVQGTQVTVSS | high polyreactivity
35 | QVQLVESGGGLVPAGGSLRLSCAASGLTFYYYAMGWSRQAPGKERELVAGISGSDGSTYYADSVKGRFTISRDNAKNTVYLQMNSLKPEDTAVYYFAAEYYYPWPLYYITDGIYDMYYWGQGTQVTVSS | low polyreactivity
36 | QVQLVESGGGLVQAGGSLRLSCAASGIIFQRNDMGRYRQAPGKERELVANIRDGGITYADSVKGRFTISRDNAKNTVYLQMNSLKPEDTAVYYCARDDTSPGYGDQSSNAAYYYWGQGTQVTVSS | low polyreactivity
37 | QVQLVESGGGLVQAGGSLRLSCAASGSIFRSNDMGWYRKAPGKERELVARITSSVGSTYYADSVKGRFTISRDNAKNTVYLQMNSLKPEVTAVYYCAKRYYHYPYGYRDYDYWGQGTQVTVSS | low polyreactivity
38 | QFQLVESGGGFVQAGGSLRLSGASSGIIFLANAMVWYRQSPGKEREFVAAISRSGSRTYDADSVKGRFTISRDHAKNSVYLQMNSVKPEDTAVYYCAAESPVLYYWGQGTQVTVSS | high polyreactivity
39 | QVQLVESGGGLVQAGGSLRLSCAASGITFYGYAMGWYRQAPGKERELVAAISRSGGSTYYADSVKGRFTISRDHAKNTVYVQMNSLKPEDTAVYYCNTDYGSSYNYWGQGTQVTVSS | high polyreactivity
40 | QVQLVESGGGLVQAGGSLRLSCAASGSTFKRYAMGWYRQAPGKERELVAAISTRGSTYYADSVKGRFTISRDNAKNTVYFQMNSLKPEDTAVYYCIARQALVWKWYWYSPGYDYWGQGTQVTVSS | low polyreactivity
41 | QVHLVESGGGLVQAGGSLRLSCAASGSIFKPYAMGWYRKAPGKERELVAAISGIGGSTYYADSVKGRFTISRDNAKNTVYLQMNSLKPEDTAVYYCAADTFFKIFSEYNYCGQGTQVTVSS | high polyreactivity
42 | QVQLVESGGGLVQAGGSLRLSCAASGFTIPYKAMGWYRHAPGKERELVAAISRSGTRTYYADSVKGRFTISRDNAKNTVYIQMNSLKPEDTAVYYCAKDTIGGASPHYYWGQGTQVTVSS | high polyreactivity
43 | QVQLVESGGGLFQAGGSLRLSCAPSGRIFTTYAMGWYRQAPGKDRELVAAISRSGGSSYYADSVKGRFTISRDNAKNTVYLQMKSLKQEDTAVYFCAAVPTSNSFRSSFYNWGQGTQVTVSS | high polyreactivity
